The test concerns the target T1, HLA-A*02:01 (human).
T1 construct: MHC monomers first loaded with a UV-sensitive peptide (not identified) that is cleaved by UV light and exchanged for the test peptide; captured on streptavidin plates, detected with anti-β2m; also called peptide-receptive MHC molecules; MHC class I
The experiment in a line: UV-ligand exchange + anti-b2m ELISA; peptide exchange yield grade (+ >=10%, ++ >=20%, +++ >=50, ++++ >=75%). An excerpt: Candidate peptides for T cell based therapies according to the present invention were further tested for their MHC binding capacity (affinity). The individual peptide-MHC complexes were produced by UV-ligand exchange, where a UV-sensitive peptide is cleaved upon UV-irradiation, and exchanged with the peptide of interest as analyzed. Only peptide candidates that can effectively bind and stabilize the peptide-receptive MHC molecules prevent dissociation of the MHC complexes. To determine the yield of the exchange reaction, an ELISA was performed based on the detection of the light chain (β2m) of stabilized MHC complexes. The assay was performed as generally described in Rodenko et al. (Rodenko et al., 2006).
96 well MAXISorp plates (NUNC) were coated over night with 2 ug/ml streptavidin in PBS at room temperature, washed 4× and blocked for 1h at 37° C. in 2% BSA containing blocking buffer. Refolded HLA-A*02:01/MLA-001 monomers served as standards, covering the range of 15-500 ng/ml. Peptide-MHC monomers of the UV-exchange reaction were diluted 100 fold in blocking buffer. Samples were incubated for 1 h at 37° C., washed four times, incubated with 2 ug/ml HRP conjugated anti-β2m for 1h at 37° C., washed again and detected with TMB solution that is stopped with […]. Absorption was measured at 450 nm. Candidate peptides that show a high exchange yield (preferably higher than 50%, most preferred higher than 75%) are generally preferred for a generation and production of antibodies or fragments thereof, and/or T cell receptors or fragments thereof, as they show sufficient avidity to the MHC molecules and prevent dissociation of the MHC complexes.
Background: ELISA stands for enzyme-linked immunosorbent assay.
Consider ILLQKPDSV (source gene RGS5) [ILLQKPDSV (SEQ ID NO: 9)], for which the peptide exchange yield fell in the range of 20 to 50%.

On to HIYDKAFITV (source gene FLT1) [HIYDKAFITV (SEQ ID NO: 101)], for which the peptide exchange yield fell in the range of 20 to 50%.

As to GVMAGDIYSV (source gene PLIN2) [GVMAGDIYSV (SEQ ID NO: 93)], the peptide exchange yield is at least 75%.

SLLQATDFMSL (source gene THY1) [SLLQATDFMSL (SEQ ID NO: 82)]: the peptide exchange yield is 50 to 75%.

Consider GLAPHLEQI (source gene IPO4) [GLAPHLEQI (SEQ ID NO: 99)], for which the peptide exchange yield was in the range of 20 to 50%.

Consider KLNVAPLAV (source genes MZT2A, MZT2B) [KLNVAPLAV (SEQ ID NO: 100)], for which the peptide exchange yield fell in the range of 20 to 50%.

For SLLPALPKL (source gene LRP2) [SLLPALPKL (SEQ ID NO: 81)], the peptide exchange yield is 20 to 50%.

In the case of YLMDEGAHL (source gene UGDH) [YLMDEGAHL (SEQ ID NO: 84)], the peptide exchange yield fell in the range of 20 to 50%.

Turning to ILHHKVYDL (source gene CYB5A) [ILHHKVYDL (SEQ ID NO: 94)], the peptide exchange yield fell in the range of 20 to 50%.

For the molecule LLFDVHTTL (source gene C5orf42) [LLFDVHTTL (SEQ ID NO: 102)], the peptide exchange yield is 50 to 75%.

As for GLLQGKLALL (source gene NQO2) [GLLQGKLALL (SEQ ID NO: 86)], the peptide exchange yield lay in the range of 20 to 50%.

Turning to FVMSEIRTV (source gene ZNF618) [FVMSEIRTV (SEQ ID NO: 85)], the peptide exchange yield fell in the range of 50 to 75%.

Regarding IQWSIVPEV (source gene GRAMD4) [IQWSIVPEV (SEQ ID NO: 83)], the peptide exchange yield lay within 50 to 75%.

Consider KLTDVGIATL (source gene ALPK2) [KLTDVGIATL (SEQ ID NO: 95)], for which the peptide exchange yield fell in the range of 20 to 50%.

Turning to FTLEKNFVI (source gene COL6A2) [FTLEKNFVI (SEQ ID NO: 90)], the peptide exchange yield lay in the range of 20 to 50%.

For TLAETLVNL (source gene ANKRD52) [TLAETLVNL (SEQ ID NO: 96)], the peptide exchange yield lay within 50 to 75%.

As for TLISELVQA (source gene CUL7) [TLISELVQA (SEQ ID NO: 97)], the peptide exchange yield lay within 20 to 50%.

On to KIPPVSPSI (source gene ARRDC3) [KIPPVSPSI (SEQ ID NO: 98)], for which the peptide exchange yield lay in the range of 20 to 50%.

With TLAELHISL (source gene NLRC5) [TLAELHISL (SEQ ID NO: 88)], the peptide exchange yield is 20 to 50%.

For FLFRDILEL (source gene DROSHA) [FLFRDILEL (SEQ ID NO: 92)], the peptide exchange yield is 50 to 75%.

With MLLSSLVSL (source gene VKORC1) [MLLSSLVSL (SEQ ID NO: 91)], the peptide exchange yield fell in the range of 20 to 50%.

On to SLLLAVTEV (source gene JAG2) [SLLLAVTEV (SEQ ID NO: 89)], for which the peptide exchange yield was 20 to 50%.

As to GLASFKSFL (source gene RGS5) [GLASFKSFL (SEQ ID NO: 8)], the peptide exchange yield lay within 20 to 50%.

For the origin of these results see patent publication US20160287687A1 (IMMATICS BIOTECHNOLOGIES, published 2016).
